Key:
[1] = target: ACTR variant SEQ ID NO: 9; assay: cell-based or functional assay
[2] = target: T1, ACTR variant SEQ ID NO: 9; assay: apparent affinity; flow cytometry, rituximab titrated on ACTR-expressing T cells, anti-human Fc detection
T1 construct: also called ACTR T cells; ACTR-expressing T cells

[3] = target: T1, ACTR variant SEQ ID NO: 9; assay: flow cytometry titration of rituximab on T cells expressing ACTR variant SEQ ID NO: 9; bound rituximab detected with a fluorochrome-labeled anti-human Fc antibody

T1 sequence (chain, as listed by the source mutant limits assumed): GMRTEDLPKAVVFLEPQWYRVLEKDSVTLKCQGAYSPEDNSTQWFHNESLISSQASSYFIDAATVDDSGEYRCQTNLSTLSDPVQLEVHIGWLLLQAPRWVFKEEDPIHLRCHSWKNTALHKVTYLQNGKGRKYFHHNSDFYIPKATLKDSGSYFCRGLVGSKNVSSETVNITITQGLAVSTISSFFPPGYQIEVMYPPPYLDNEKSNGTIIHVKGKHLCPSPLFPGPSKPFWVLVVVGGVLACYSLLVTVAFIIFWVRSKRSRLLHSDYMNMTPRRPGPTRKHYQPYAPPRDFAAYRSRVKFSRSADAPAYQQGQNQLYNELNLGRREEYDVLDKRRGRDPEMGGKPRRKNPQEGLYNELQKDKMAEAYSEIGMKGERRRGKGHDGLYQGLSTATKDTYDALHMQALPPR

Kd [2]: 689 nM
EC50 (read off the curve) [3]: ~700 nM
B1: rituximab (antibody, V domains shown)
VH: QVQLQQPGAELVKPGASVKMSCKASGYTFTSYNMHWVKQTPGRGLEWIGAIYPGNGDTSYNQKFKGKATLTADKSSSTAYMQLSSLTSEDSAVYYCARSTYYGGDWYFNVWGAGTTVTVSA
VL: QIVLSQSPAILSASPGEKVTMTCRASSSVSYIHWFQQKPGSSPKPWIYATSNLASGVPVRFSGSGSGTSYSLTISRVEAEDAATYYCQQWTSNPPTFGGGTKLEIK
EC50 (µg/mL) of cytotoxicity, Raji Target Cells + Rituximab [1]: 0.07 µg/mL

— patent US20200181226A1 (UNUM THERAPEUTICS, published 2020)
